This passage reports signal over background (fold over background) and signal-to-noise ratio results from US7312060.

Assay [1] concerns the target APC segment 3 (amino acids 1098-1696), wild type, with N-terminal VSV-G tag and C-terminal P53-derived tag (Vesicular Stomatitis Virus; human) (UniProt P25054). The assay can be described thus: HTS-PTT ELISA on NeutrAvidin plate, HRP chemiluminescence. (In general: In an ELISA, binding on a coated surface is turned into a signal by an enzyme label.)
Assay [2] has the same target. Description: HTS-PTT ELISA, 0.1 ul of translation mix per well.
Assay [3] shares this target. The assay can be described thus: HTS-PTT ELISA on NeutrAvidin plate, alkaline phosphatase chemiluminescence.

UniProt P25054, sequence (P25054 other isoform, or with tags, fused parts or gaps limits assumed): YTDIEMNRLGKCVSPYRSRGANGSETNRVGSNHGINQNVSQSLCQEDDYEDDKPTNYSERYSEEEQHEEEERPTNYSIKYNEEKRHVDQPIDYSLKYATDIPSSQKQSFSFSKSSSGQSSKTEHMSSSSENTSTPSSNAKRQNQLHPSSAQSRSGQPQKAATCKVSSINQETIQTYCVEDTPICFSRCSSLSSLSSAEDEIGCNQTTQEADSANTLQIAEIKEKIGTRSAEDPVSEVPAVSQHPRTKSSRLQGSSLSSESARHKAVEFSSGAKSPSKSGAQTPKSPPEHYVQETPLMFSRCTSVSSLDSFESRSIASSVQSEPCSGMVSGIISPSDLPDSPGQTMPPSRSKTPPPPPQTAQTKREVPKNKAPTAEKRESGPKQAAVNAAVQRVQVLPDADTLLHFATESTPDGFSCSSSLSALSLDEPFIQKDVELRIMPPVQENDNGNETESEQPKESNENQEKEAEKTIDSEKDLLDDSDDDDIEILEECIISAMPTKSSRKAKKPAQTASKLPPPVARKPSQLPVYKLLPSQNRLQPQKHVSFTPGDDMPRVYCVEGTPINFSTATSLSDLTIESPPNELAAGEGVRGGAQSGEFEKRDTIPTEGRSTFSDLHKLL

With “anti-VSV-G-HRP (Roche Applied Sciences) (antibody)”, in assay [1], the signal over background (fold over background) came to 400. Further, the signal-to-noise ratio in assay [2] came to 10.

The substance “anti-p53-alkaline phosphatase (Santa Cruz Biotechnology) (antibody)” had a signal over background (fold over background) in assay [3] of 100. In addition, in assay [2], the signal-to-noise ratio stood at 30.
